Kd data for 1 molecule are collected here from PMC4232046, “The Janus transcription factor HapX controls fungal adaptation to both iron starvation and iron excess”.

By Kd is commonly meant the equilibrium constant for the complex coming apart.

The data set has as its target HapX(24-158) (Aspergillus fumigatus, UniProt Q4WER3 24-158). The data set can be described thus: SPR; HapX alone, no CBC; SPR Biacore T200, 25 C; 10 mM phosphate pH 7.4, 2.7 mM KCl, 137 mM NaCl, 1 mM DTT, 0.005% surfactant P20, 10 ug/ml poly(dI-dC); biotin-DNA on streptavidin CM3 chip. To be noted: protein: recombinant; tags: MBP fusion cleaved with TEV; extended N-terminus with TEV site; chain copies: 2; label: 5' biotin on strand 1; blunt. A general note: Surface plasmon resonance follows binding to a sensor surface in real time, without labels.

HapX(24-158), sequence (Q4WER3 24-158): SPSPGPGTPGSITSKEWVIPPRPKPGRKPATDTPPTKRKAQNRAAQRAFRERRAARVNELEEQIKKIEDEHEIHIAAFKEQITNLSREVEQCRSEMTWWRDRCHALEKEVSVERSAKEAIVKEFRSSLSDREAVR

B1: cccAp-369-37 (dsDNA)
DNA 1: AAATCCACCAATCAACGCCTCCGTGATTGTCAGCAAT
DNA 2: ATTGCTGACAATCACGGAGGCGTTGATTGGTGGATTT
For the molecule B1, the equilibrium dissociation constant (Kd) stood at 171 nM.
